Measurements taken from publication PMC5563082 (2017).

Legend:
Assay in all cases: SPR
[1] = target: human NL2(–A)_(ECTO) (Glu38-His612), immobilised for SPR (human, UniProt Q8NFZ4 38-612, –A: GPLTKKRDEATLNPPDT between Asp152 and Asp170 absent, biotin on the Avitag (in vivo biotinylation by BirA))
[2] = target: T1, human NL5_(ECTO) (NL4(Y); Gln42-Glu602), immobilised for SPR (human, UniProt Q8NFZ3-1 42-602, biotin on the Avitag (in vivo biotinylation by BirA))
T1 chain: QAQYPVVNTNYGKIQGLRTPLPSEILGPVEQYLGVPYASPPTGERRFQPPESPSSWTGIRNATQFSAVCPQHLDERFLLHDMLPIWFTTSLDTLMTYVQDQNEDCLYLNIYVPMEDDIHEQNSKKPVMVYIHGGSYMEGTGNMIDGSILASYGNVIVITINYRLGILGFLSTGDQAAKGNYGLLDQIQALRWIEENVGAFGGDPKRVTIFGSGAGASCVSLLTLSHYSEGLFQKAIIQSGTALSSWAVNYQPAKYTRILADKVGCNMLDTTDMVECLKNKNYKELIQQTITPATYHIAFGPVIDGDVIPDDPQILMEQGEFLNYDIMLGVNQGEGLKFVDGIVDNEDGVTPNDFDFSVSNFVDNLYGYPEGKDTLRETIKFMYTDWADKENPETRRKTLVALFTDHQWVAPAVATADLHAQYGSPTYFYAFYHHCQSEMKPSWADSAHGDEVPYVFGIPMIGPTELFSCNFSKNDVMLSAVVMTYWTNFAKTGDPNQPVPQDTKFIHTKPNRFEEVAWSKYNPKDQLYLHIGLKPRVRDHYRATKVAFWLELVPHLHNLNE

[3] = target: T2, human NL4_(ECTO) (NL4(X); Gln42-Glu602), immobilised for SPR (human, UniProt Q8N0W4-1 42-602, biotin on the Avitag (in vivo biotinylation by BirA))
T2 chain: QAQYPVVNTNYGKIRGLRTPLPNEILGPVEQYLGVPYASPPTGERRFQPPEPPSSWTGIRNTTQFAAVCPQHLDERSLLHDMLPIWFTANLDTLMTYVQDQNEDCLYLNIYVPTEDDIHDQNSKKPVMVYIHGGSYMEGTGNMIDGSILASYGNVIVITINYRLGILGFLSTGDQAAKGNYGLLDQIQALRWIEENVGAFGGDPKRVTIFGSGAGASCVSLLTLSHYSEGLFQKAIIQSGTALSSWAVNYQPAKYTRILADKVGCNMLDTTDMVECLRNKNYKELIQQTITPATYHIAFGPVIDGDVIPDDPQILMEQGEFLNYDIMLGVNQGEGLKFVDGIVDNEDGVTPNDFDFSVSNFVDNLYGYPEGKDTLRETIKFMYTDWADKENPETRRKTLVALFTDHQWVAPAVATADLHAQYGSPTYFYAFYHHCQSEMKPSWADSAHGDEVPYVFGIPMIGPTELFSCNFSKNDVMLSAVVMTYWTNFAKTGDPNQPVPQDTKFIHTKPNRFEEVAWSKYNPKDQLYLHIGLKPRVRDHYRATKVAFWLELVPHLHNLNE

[4] = target: T3, human NL1(–A+B Asn300Gln)_(ECTO), immobilised for SPR (human, biotin on the Avitag (in vivo biotinylation by BirA))
T3 chain: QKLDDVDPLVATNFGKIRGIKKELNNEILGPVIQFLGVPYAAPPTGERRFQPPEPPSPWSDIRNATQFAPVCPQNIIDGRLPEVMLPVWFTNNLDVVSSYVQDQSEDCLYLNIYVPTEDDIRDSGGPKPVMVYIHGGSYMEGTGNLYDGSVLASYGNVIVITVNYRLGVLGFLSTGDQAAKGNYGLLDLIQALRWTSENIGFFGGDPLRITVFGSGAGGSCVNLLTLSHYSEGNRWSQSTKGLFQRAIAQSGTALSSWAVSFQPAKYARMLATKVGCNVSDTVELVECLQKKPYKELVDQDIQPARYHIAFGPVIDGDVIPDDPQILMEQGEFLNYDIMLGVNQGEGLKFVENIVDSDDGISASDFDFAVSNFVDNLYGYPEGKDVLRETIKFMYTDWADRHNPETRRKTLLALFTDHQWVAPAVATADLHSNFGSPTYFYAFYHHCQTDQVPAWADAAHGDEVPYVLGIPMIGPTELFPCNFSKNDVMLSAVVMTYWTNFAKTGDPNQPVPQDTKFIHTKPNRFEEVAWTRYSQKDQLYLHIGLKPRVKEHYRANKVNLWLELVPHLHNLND

[5] = target: T4, human NL1(–A+B)_(ECTO), immobilised for SPR (human, biotin on the Avitag (in vivo biotinylation by BirA); N-linked glycan at Asn300)
T4 chain: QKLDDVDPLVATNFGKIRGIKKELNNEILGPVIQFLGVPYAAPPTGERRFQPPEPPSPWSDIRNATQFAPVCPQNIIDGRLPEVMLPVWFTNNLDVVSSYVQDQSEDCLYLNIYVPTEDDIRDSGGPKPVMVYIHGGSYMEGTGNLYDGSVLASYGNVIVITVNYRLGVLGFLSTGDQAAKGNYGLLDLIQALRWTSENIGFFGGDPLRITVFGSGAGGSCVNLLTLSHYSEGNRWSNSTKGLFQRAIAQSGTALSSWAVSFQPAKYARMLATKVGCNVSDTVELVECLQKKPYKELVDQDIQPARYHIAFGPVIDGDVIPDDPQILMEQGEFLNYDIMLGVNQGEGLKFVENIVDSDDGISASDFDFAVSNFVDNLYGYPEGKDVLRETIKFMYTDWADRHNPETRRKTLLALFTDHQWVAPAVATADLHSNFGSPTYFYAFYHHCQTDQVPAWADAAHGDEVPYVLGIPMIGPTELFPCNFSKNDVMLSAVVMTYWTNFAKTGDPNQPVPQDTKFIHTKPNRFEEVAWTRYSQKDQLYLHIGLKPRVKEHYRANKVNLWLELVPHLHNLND

[6] = target: human NL3(–A)_(ECTO) Arg451Cys, immobilised for SPR (human, UniProt Q9NZ94-1 38-636, –A: nothing between Asp152 and Asp193 | R451C, biotin on the Avitag (in vivo biotinylation by BirA))
Chain of human NL3(–A)_(ECTO) Arg451Cys, immobilised for SPR (Q9NZ94 other isoform, or with tags, fused parts or gaps –A: nothing between Asp152 and Asp193 | R451C | R451C): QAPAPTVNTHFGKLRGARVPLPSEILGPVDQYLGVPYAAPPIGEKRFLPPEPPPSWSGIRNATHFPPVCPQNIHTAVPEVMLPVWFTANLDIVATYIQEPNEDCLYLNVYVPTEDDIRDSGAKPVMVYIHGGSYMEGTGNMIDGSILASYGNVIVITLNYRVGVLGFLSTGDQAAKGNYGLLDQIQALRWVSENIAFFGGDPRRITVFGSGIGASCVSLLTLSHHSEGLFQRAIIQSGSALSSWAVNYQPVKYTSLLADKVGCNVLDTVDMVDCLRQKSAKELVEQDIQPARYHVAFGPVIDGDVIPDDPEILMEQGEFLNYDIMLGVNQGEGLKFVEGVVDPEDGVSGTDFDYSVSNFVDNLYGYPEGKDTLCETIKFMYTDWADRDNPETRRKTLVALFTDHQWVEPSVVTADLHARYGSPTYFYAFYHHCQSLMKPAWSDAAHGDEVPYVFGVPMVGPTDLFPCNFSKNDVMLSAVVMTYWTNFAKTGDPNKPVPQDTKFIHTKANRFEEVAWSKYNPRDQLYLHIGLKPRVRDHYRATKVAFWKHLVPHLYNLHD

Chain of human NL2(–A)_(ECTO) (Glu38-His612), immobilised for SPR (Q8NFZ4 other isoform, or with tags, fused parts or gaps with the stated changes): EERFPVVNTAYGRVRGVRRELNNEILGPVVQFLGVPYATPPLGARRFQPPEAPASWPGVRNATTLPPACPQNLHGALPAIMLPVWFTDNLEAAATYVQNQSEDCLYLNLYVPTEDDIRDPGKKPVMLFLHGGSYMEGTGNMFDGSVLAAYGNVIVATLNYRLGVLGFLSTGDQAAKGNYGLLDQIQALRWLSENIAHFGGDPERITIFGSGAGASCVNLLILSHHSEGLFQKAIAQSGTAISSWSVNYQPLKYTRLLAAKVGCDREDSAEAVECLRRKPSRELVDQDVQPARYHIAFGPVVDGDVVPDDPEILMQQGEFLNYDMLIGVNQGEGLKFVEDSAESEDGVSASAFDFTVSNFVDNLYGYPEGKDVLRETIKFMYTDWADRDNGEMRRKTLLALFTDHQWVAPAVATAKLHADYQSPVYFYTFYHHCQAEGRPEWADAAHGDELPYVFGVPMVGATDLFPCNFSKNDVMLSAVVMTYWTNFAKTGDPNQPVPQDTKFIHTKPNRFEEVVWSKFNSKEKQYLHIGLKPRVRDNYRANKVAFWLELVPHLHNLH

B1: human MDGA2 extracellular domain (MDGA2_(ECTO); Gln21-Lys927) (domain or fragment)
chain: QGVYAPPTVRIVHSGLACNIEEERYSERVYTIREGETLELTCLVTGHPRPQIRWTKTAGSASDRFQDSSVFNETLRITNIQRHQGGRYYCKAENGLGSPAIKSIRVDVYYLDDPVVTVHQSIGEAKEQFYYERTVFLRCVANSNPPVRYSWRRGQEVLLQGSDKGVEIYEPFFTQGETKILKLKNLRPQDYANYSCIASVRNVCNIPDKMVSFRLSNKTASPSIKLLVDDPIVVNPGEAITLVCVTTGGEPAPSLTWVRSFGTLPEKTVLNGGTLTIPAITSDDAGTYSCIANNNVGNPAKKSTNIIVRALKKGRFWITPDPYHKDDNIQIGREVKISCQVEAVPSEELTFSWFKNGRPLRSSERMVITQTDPDVSPGTTNLDIIDLKFTDFGTYTCVASLKGGGISDISIDVNISSSTVPPNLTVPQEKSPLVTREGDTIELQCQVTGKPKPIILWSRADKEVAMPDGSMQMESYDGTLRIVNVSREMSGMYRCQTSQYNGFNVKPREALVQLIVQYPPAVEPAFLEIRQGQDRSVTMSCRVLRAYPIRVLTYEWRLGNKLLRTGQFDSQEYTEYAVKSLSNENYGVYNCSIINEAGAGRCSFLVTGKAYAPEFYYDTYNPVWQNRHRVYSYSLQWTQMNPDAVDRIVAYRLGIRQAGQQRWWEQEIKINGNIQKGELITYNLTELIKPEAYEVRLTPLTKFGEGDSTIRVIKYSAPVNPHLREFHCGFEDGNICLFTQDDTDNFDWTKQSTATRNTKYTPNTGPNADRSGSKEGFYMYIETSRPRLEGEKARLLSPVFSIAPKNPYGPTNTAYCFSFFYHMYGQHIGVLNVYLRLKGQTTIENPLWSSSGNKGQRWNEAHVNIYPITSFQLIFEGIRGPGIEGDIAIDDVSIAEGECAKQDLATK
Kd [1]: 768 nM | Kd [2]: 21.9 µM | Kd [3]: 14.4 µM | Kd [4]: 4.03 µM | Kd [5]: 9.63 µM

B2: human β-neurexin-1 LNS6 domain with SS4 (β-NRX1_(LNS6)(+4)) (domain or fragment)
chain: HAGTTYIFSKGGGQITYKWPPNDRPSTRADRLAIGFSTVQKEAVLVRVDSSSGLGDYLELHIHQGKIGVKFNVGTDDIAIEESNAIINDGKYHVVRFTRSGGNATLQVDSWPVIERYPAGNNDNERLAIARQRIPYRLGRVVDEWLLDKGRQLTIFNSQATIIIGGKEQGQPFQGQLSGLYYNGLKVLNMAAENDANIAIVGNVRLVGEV
Kd [1]: 4000 nM | Kd [2]: 14.2 µM | Kd [3]: 9.66 µM | Kd [6]: 47.9 µM | Kd [4]: 4.4 µM | Kd [5]: 4.75 µM

B3: human MDGA1 extracellular domain (MDGA1_(ECTO); Gln19-Lys925) (domain or fragment)
chain: QGVYAPAQAQIVHAGQACVVKEDNISERVYTIREGDTLMLQCLVTGHPRPQVRWTKTAGSASDKFQETSVFNETLRIERIARTQGGRYYCKAENGVGVPAIKSIRVDVQYLDEPMLTVHQTVSDVRGNFYQEKTVFLRCTVNSNPPARFIWKRGSDTLSHSQDNGVDIYEPLYTQGETKVLKLKNLRPQDYASYTCQVSVRNVCGIPDKAITFRLTNTTAPPALKLSVNETLVVNPGENVTVQCLLTGGDPLPQLQWSHGPGPLPLGALAQGGTLSIPSVQARDSGYYNCTATNNVGNPAKKTVNLLVRSMKNATFQITPDVIKESENIQLGQDLKLSCHVDAVPQEKVTYQWFKNGKPARMSKRLLVTRNDPELPAVTSSLELIDLHFSDYGTYLCMASFPGAPVPDLSVEVNISSETVPPTISVPKGRAVVTVREGSPAELQCEVRGKPRPPVLWSRVDKEAALLPSGLPLEETPDGKLRLERVSRDMSGTYRCQTARYNGFNVRPREAQVQLNVQFPPEVEPSSQDVRQALGRPVLLRCSLLRGSPQRIASAVWRFKGQLLPPPPVVPAAAEAPDHAELRLDAVTRDSSGSYECSVSNDVGSAACLFQVSAKAYSPEFYFDTPNPTRSHKLSKNYSYVLQWTQREPDAVDPVLNYRLSIRQLNQHNAVVKAIPVRRVEKGQLLEYILTDLRVPHSYEVRLTPYTTFGAGDMASRIIHYTEPINSPNLSDNTCHFEDEKICGYTQDLTDNFDWTRQNALTQNPKRSPNTGPPTDISGTPEGYYMFIETSRPRELGDRARLVSPLYNASAKFYCVSFFYHMYGKHIGSLNLLVRSRNKGALDTHAWSLSGNKGNVWQQAHVPISPSGPFQIIFEGVRGPGYLGDIAIDDVTLKKGECPRKQTDPNK
Kd [2]: 23.2 µM | Kd [3]: 14.7 µM | Kd [4]: 7.22 µM | Kd [5]: 13.2 µM

B4: human β-neurexin-1 LNS6 domain lacking SS4 (β-NRX1_(LNS6)(–4); His85-Val265) (domain or fragment)
chain: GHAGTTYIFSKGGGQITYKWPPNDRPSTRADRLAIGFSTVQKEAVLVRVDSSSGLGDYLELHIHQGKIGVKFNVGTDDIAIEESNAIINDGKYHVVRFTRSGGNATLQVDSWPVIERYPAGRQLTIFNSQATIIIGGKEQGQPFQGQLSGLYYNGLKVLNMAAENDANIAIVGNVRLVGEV
Kd [1]: 699 nM | Kd [2]: 3.16 µM | Kd [3]: 2.49 µM | Kd [6]: 10.8 µM | Kd [4]: 1.09 µM | Kd [5]: 1.16 µM
